Reference: patent publication US20050079543A1

Columns and labels:
[1] = target: Stat84, activated (from IFN-γ-treated C84 or Cmx cells) (human) (UniProt P42224); assay: cell-based or functional assay
[2] = target: Stat91L, activated (from IFN-γ-treated C91L or Cmx cells) (human) (UniProt P42224); assay: cell-based or functional assay
[3] = target: tyrosine phosphorylated Stat91 (human) (UniProt P42224); assay: native gel electrophoresis, Ferguson plots
[4] = target: tyrosine phosphorylated Stat91 (human) (UniProt P42224); assay: glycerol gradient sedimentation

Chain of Stat84, activated (from IFN-γ-treated C84 or Cmx cells) (human) (P42224 2-712 limits assumed): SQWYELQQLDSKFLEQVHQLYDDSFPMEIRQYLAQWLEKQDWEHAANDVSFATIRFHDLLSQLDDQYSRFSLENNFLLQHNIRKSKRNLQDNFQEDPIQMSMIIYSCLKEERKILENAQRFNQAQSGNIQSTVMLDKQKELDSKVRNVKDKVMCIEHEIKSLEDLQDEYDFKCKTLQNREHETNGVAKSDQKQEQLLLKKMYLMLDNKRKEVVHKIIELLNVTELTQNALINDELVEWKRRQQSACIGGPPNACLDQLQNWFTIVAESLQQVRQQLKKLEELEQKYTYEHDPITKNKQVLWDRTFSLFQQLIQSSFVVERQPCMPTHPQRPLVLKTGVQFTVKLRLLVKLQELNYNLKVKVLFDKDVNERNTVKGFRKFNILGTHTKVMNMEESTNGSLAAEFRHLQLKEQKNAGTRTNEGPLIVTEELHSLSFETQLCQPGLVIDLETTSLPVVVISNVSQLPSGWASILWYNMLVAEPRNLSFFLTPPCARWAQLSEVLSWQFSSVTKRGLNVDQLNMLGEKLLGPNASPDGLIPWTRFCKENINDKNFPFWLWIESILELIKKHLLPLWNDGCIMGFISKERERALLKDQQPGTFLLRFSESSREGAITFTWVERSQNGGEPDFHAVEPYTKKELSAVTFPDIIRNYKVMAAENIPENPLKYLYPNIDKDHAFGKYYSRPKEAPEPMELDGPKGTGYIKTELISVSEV
Chain of Stat91L, activated (from IFN-γ-treated C91L or Cmx cells) (human) (P42224 2-750, stated change not applied): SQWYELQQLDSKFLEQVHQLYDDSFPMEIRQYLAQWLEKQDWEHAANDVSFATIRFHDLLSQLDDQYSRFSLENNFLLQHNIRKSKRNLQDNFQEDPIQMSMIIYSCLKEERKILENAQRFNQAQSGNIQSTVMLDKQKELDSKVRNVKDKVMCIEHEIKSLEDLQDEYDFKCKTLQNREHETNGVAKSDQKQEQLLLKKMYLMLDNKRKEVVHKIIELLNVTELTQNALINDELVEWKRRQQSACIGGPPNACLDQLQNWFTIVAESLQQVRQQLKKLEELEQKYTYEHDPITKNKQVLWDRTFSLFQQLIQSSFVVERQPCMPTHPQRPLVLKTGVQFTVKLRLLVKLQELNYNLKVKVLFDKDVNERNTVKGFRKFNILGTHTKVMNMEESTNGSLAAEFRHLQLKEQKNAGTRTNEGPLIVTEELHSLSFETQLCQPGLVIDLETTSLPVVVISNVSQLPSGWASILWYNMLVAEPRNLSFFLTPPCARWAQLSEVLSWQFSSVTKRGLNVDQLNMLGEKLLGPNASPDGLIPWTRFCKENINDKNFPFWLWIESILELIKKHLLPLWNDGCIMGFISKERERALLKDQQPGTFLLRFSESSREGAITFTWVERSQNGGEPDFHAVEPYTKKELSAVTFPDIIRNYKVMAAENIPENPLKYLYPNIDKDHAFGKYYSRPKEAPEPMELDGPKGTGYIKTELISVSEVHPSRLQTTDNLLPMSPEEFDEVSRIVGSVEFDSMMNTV

Row | fusion protein concentration that promoted heterodimer formation (gel mobility shift) [1] [µM] | fusion protein concentration that promoted heterodimer formation (gel mobility shift) [2] [µM] | native molecular weight [3] [kD] | native molecular weight [4] [kD] | Substance
1 | 0.5 to 5 | 0.5 to 5 |  |  | GST-91SH2 (glutathione-S-transferase fused to the Stat91 SH2 domain, amino acids 573 to 672) (from UniProt P42224 573-672)
2 |  |  | 180 | 180 | tyrosine phosphorylated Stat91 (from UniProt P42224 2-750)
